Here are results for 40 sequences from the nanobody polyreactivity screen of Harvey et al. (2022).

The series is described as follows: yeast display, Sf9 membrane polyspecificity reagent, FACS + sequencing; frameworks hold sequencing errors. In short, it runs like this: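 Using colony PCR, genes from sorted yeast display clones were amplified, then sequenced on MiSeq at 2 × 250 and filtered by CDR length. The clones had been stained with 10% biotinylated, detergent-solubilized Sf9 membrane reagent for 1 hour at 4 °C and sorted by FACS into low and high (top ~1%) gates on anti-HA and streptavidin fluorescence. Polyreactivity labels come from the gate of origin.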
Turning to “QVQLVESGGGLFQAGGSLRLSCAASGFTFIYYAMGSYRQAPGKATELVSAITHSGGSTYYADSVKGRFTISRDNAKTTVSLQMNSLNPEDTAVYYCAARLTWSRYQKYRTSSWQSYYWGQGTQVTVSS”, the “polyreactivity (PSR sort gate)” value was “high polyreactivity”.
The value for “QVQLVESGGGLFQAGGSLRLSCAASGFTVRRYTMGWYRPATGKEREMVATISLSDGNTYYADSVKGRFTISRDNAKNTVYLQMNRLKAEDTAFYDCNAYSQSWNFYGDGDYWGQGTQVTVSS” was “low polyreactivity”; that for “QVQLVESGGGLFQAGGSLRLSCAASGGTFNFYAMGWYRQAPGKERELVARIDSGVSTNYADTVKGRFTISRDNAKNTVYLQMNSLKPEDTAVYYCNAERYRSRRYPYRYLYYYWGQGTQVTVSS” was “high polyreactivity”.
Take “QVQLVESGGGLFQAGGSLRLSCAASGIIFRYYAMGWSRQAPGKEREFVASINFSGSSTYYADSVKGRFTISRDKAKNTVYLQMNSLKPEDTAVYYCAAGRRWLYDYWGQGTQVTVSS”: the “polyreactivity (PSR sort gate)” value is recorded as “high polyreactivity”.
As for “QVQLVESGGGLFQAGGSLRLSCAASGLIFRAYAMVWYRQSPGKERELVADITRSGGRTYYADSVKGRFTISRDNAKNTVYLQMNSLKPEDTAVYYCAAYVYSYWFYRGYEYWGQGTQVTVSS”, the entry is “high polyreactivity”; as for “QVQLVESGGGLFQAGGSLRLSCAASGLTFYRYVMGWYRQAPGKERELVAAISDSGGSTYYADSVKGRFTISRDNAKNTVYLQMNSLKPEDTAVYYCAAEAPSFVYYSRYDYWGQGTQVTVSS”, “high polyreactivity”.
On to “QVQLVESGGGLFQAGGSLRLSCAASGRIFGGYAMGWYRQAPGTERELVAAIDWDGGSTYYADSVKGRFTISRDNEKNTVYLQMNSLKPEDTAVYYSNAVKWTWWSSSGDYDYWGQGTQVTVSS”, for which the “polyreactivity (PSR sort gate)” value is “high polyreactivity”.
Turning to “QVQLVESGGGLFQAGGSLRLSCAASGRIFQGYVMGRYRQAPGKERELVAVISRRGGITNYADSVKGRFTISSDNAKNSVYLQIYRLKPEDTAVYYCNSVTRVYNNGQYGYWGQGTQVTVSS”, the “polyreactivity (PSR sort gate)” value is given as “high polyreactivity”.
As for “QVQLVESGGGLFQAGGSLRLSCAASGRIFVFYTMGWYRQAPGKERELVASINSGGSTYYADSVKGRFTISRDNAKNTVYLQMNSLKPEDTAVYYCAASRTRRGVRQFDYWGQGTQVTVSS”, the entry is “high polyreactivity”; as for “QVQLVESGGGLFQAGGSLRLSCAASGRIFYSNAMGWYRQAPGKERELVASISPNSGPTYYADSVKGRFTISRDNAKNTVYLQMNSLKPEVTAVYYCAARGGYYQDGLVTGVAEYGYCGQGTQVTVSS”, “low polyreactivity”.
On to “QVQLVESGGGLFQAGGSLRLSCAASGRISYGNAMGWYRQAPGKEMELVAAISGSGGSKYYADSVKGRFTISRDNAKNTVYLQMNSLKPEDTAVYYCAADSRKRQGYGYWGQGTQVTVSS”, for which the “polyreactivity (PSR sort gate)” value was “low polyreactivity”.
Consider “QVQLVESGGGLFQAGGSLRLSCAASGRTFAYYTMGWYRQAPGKERELVAAITSSGGSTYYADSEKGRFTISRDNAKNTVYLQMNSLKPEDTAVYYCNAYGLRWASRLGYDYWGQGTQVTVSS”, for which the “polyreactivity (PSR sort gate)” value is “high polyreactivity”.
The value for “QVQLVESGGGLFQAGGSLRLSCAASGRTFISNPMGWYRQAPGKVWEMVASITSGGSTNYADSVKGRFTISRDNAKNSVYVHMYSQNREDTAVYYCAAEGLVVGWTEEDYWGQGTQVTVSS” was “low polyreactivity”.
The value for “QVQLVESGGGLFQAGGSLRLSCAASGRTITYYAMGWYRQAPGKERELVAAITWSGGSTYYADSVKGRFTISRDNAKNTVYLQMNSMKPEDTAVYYCAKEFYYSSGFDYWGQGTQVTVSS” was “low polyreactivity”; that for “QVQLVESGGGLFQAGGSLRLSCAASGSIFDVNVMGWYRQAPGKERELVASINISGASTYYADSVTGRFTISRDNAKNTVYLQMNSLKPEDTAVYYCAVTYGVPSFRYGYWGQVTQVTVSS” was “low polyreactivity”; that for “QVQLVESGGGLFQAGGSLRLSCAASGSIFFYNNMGWYRQAPGKERELVDAISASGGRTYYADSVKGRFTISRDNAKNSVYLQMYSLKPEDTAVYYCAVRVPYRGYTRYDYWGQGTQVTVSS” was “high polyreactivity”.
On to “QVQLVESGGGLFQAGGSLRLSCAASGSIFNRYAMGWYRQAPGKERELVAAISSGGRTKYADSVKGRFTISRDNAKNTVYLQMNSLKPEDTAVYYCNAAYFLSGTCRTFDYWGQGTQVTVSS”, for which the “polyreactivity (PSR sort gate)” value is recorded as “high polyreactivity”.
“QVQLVESGGGLFQAGGSLRLSCAASGSIFQYYTMRWYRQAPGKERELVATINNNGGRTYYADSVKGRFTISRDNAMNSVYFQMYSLKPVDTAVYYCATDIWRYYRGWEDYWGQGTEVTVSS”: the “polyreactivity (PSR sort gate)” value is “high polyreactivity”.
As for “QVQLVESGGGLFQAGGSLRLSCAASGSIFRDNVMVWYIHAPGKERELVAVITSGGSTNYADSVKGRFTISRDNAKNTVYLQMNSLKPEDTAVYYCNAAKTGSQSRLEYWGQGTQVTVSS”, the “polyreactivity (PSR sort gate)” value was “high polyreactivity”.
As for “QVQLVESGGGLFQAGGSLRLSCAASGSIFSWNDMGWYRQAPGKERELVAAINWNGGSTYYADSVKGRFTISRDNEKNSVYLQMNSLKPEYSEVYYCAAERSLYYVYSREYWGQGTQVTVSS”, the entry is “low polyreactivity”; as for “QVQLVESGGGLFQAGGSLRLSCAASGSIFTPNTMGWYRKAPGKERELVAAITIRGGSTYYADSLKGRFTISRDNAKNTVYLQMNSLKPEDTAVYYCATEYALRYYLVDYWGQGTQVTVSS”, “low polyreactivity”; as for “QVQLVESGGGLFQAGGSLRLSCAASGSIINIYAMGWYRQAPGKERELVATITGIADSTYYADSVKGRFTISRDNAKNTVYLQMNSLKPEDTAVYYCAADKYVADYDYWGQGSQVTVSS”, “low polyreactivity”.
With “QVQLVESGGGLFQAGGSLRLSCAASGSTFWFNAMGWYRQAPGKERELVAAITSGDGTNYADSVKGRFTISRDNAKNTVYLQMNSLKPEVTAVYYCATVYADESGIEGYSWGQGTQVTVSS”, the “polyreactivity (PSR sort gate)” value was “low polyreactivity”.
As for “QVQLVESGGGLFQAGGSLRLSCADSGSTFSLYAMGWDRQAPGKDRELVAAITWSGGSTYYADSEKGRFTISRDNAKTTVYLQMTSLPPEDTAVYYCAAHRIGYYLRVSYRGKYDHWGQGTQVTVSS”, the entry is “low polyreactivity”; as for “QVQLVESGGGLFQAGGSLRLSCAPSGRIFTTYAMGWYRQAPGKDRELVAAISRSGGSSYYADSVKGRFTISRDNAKNTVYLQMKSLKQEDTAVYFCAAVPTSNSFRSSFYNWGQGTQVTVSS”, “high polyreactivity”.
Regarding “QVQLVESGGGLFQAGGSLRLSCAPSGRTFDYNAMGWYRQAPGKERELVAAISGSGTRTFYADSVKGRFTISRDNAKNTVYLQMNSLKPEDTAVYYCAASHGWSKSIFYYWGQGTQVTVSS”, the “polyreactivity (PSR sort gate)” value is on record as “high polyreactivity”.
As for “QVQLVESGGGLFQAGGSLRLSSAASGRIIRRNAMGWYRQAPGKEWDLDAAITSSGGNTYYADSVKGRFTISRDNAKNTVYLQMNSLKPEDSAVYYCATYPGNWDLDYWGQGTQVTVSS”, the entry is “high polyreactivity”.
Regarding “QVQLVESGGGLFQAGGSLRLSSAASGTRYYAMGWYRPAPGKERELVAGIRWRDGGTYYADSVKGRFTISRDNAKNTFYLQLNSLKPEDTAVYYCNASVTSWYKRAGYYWGQGSQVTVSS”, the “polyreactivity (PSR sort gate)” value was “high polyreactivity”.
The value for “QVQLVESGGGLFQAGGSLRLTCAASGFTFIKYSMGWYRQAPGKEREFVATISWNGGNTYYADSVKGRFTISRDNAKNTVYLQMNSLKPEVTAVYYCAARVKYRTRGGTVVSYDYWGQGTQVTVSS” was “high polyreactivity”; that for “QVQLVESGGGLFQAGGSLRLTCAASGITFYYYAMGWYRQAPGKERELVAAISVRGTRTFYADCVKWRFTISRDNAKNTVYLQMNSLKPEDTEVYYCNKSVSNDDGLEYWGQGTQVTVSS” was “high polyreactivity”.
On to “QVQLVESGGGLFQAGGSLSLSCAATGIIFRSYAMGWYRQAPGKEREMVAAITRSGGSTYADSVKGRFTISRDNAKNTVDLQMNSLKPEDTAVYYCAADRYSGWVYRRDYWGQGTQVTVSS”, for which the “polyreactivity (PSR sort gate)” value is given as “low polyreactivity”.
For the sequence “QVQLVESGGGLFQAGGTLRLSCAASGRIFVYYAMGWYRQAPGKERELVASITTGGRTYYADSVKGRFTISRDNAKNTVYLQMNSLKPEDTAVYYCAARKYSYTWYDYWGQGTQVTVSS”, the “polyreactivity (PSR sort gate)” value is recorded as “high polyreactivity”.
As for “QVQLVESGGGLFQAGGTLRLSCASSGLIFSRYAMGWYRQSPGKEWELVAGISTSGGRTYYADSVKGRFTISRYNAKNTVYFQMNSLKPEDTAVYYCAAQFKYRQINSYLLGDYWGQGTQVTVSS”, the entry is “high polyreactivity”; as for “QVQLVESGGGLFQAGVSLRLSCAASGLIFYGNAMGWYRQAPGKERELVAAITGGGGNTYYADSVKGRFTISRYYAKITVYLQMNSLKPEDTAVYYCATATSTAYVRYYYWGQGTQVTVSS”, “high polyreactivity”.
“QVQLVESGGGLFQEGGSLRLICAASGFTFSGYAMGWYRQAPGKERELVDAISSSGGSTYYADSVKGRFTISRDNAKNTVYLQMNSLKPEDTAVYYCYDRSRYYPGYSRFFYWGQGTQVTVSS”: the “polyreactivity (PSR sort gate)” value is listed as “high polyreactivity”.
In the case of “QVQLVESGGGLFQEGGSLRLSCAASGRIFYGYGMGWYRQAPGKERELVAAITWSGSRTYYADSVKGRFTISRDNAKNTVYVQMNSLKPEDTAVYYCAARIPSDGYYYWGQGTQVTVSS”, the “polyreactivity (PSR sort gate)” value is given as “high polyreactivity”.
“QVQLVESGGGLGQAGGSLLLSCAASGSTFKYNAMGWNRKAPGKERELVPAISRGGRTNYADSVKGRFKISRDNAKNTVYLQMNSLKPEDTAVYYCAKDVAGLFHVGALYYYWGQGTQVTVSS”: the “polyreactivity (PSR sort gate)” value is recorded as “low polyreactivity”.
As for “QVQLVESGGGLGQAGGSLRLSCAASGFIFTFYAMGWNRQAPGKERELVAAISWSGGSTYYADSVKGRFTISHDNAKNTVYLQMNSLKPEDTAVYSCNAQHARGYYYWGQGTQVTVSS”, the entry is “low polyreactivity”.
On to “QVQLVESGGGLGQAGGSLRLSCAASGFTFPWYAMGWYRPAPGKERELVASISYRGDSTYYADSVKGRFTISRDNAKNTVYLEMNSLKPEDTAVYYCNNSLASYYLPGFDYWGQGTQVTVSS”, for which the “polyreactivity (PSR sort gate)” value is “low polyreactivity”.
As for “QVQLVESGGGLGQAGGSLRLSCAASGFTFRYYAMGWSRQAPGKERELVAAITGSGGRTYYADSVKGRFTISRDNAKNTVYLQKNSLKPEDSAVYYCARDVDPRGRYYWGQGTQVTVSS”, the entry is “high polyreactivity”.
